According to patent publication US20220025021A1 (BETH ISRAEL DEACONESS MEDICAL CENTER, published 2022):
Positions count from the first letter of the chain named.

B1: MS-111 (antibody)
VH: not shown
VL: DFVLTQSPLSLSVTPGESASISCKSSHSLIHGDRNNYLAWYVQKPGRSPQLLIYLASSRASGVPDRFSGSGSGKDFTLKISRVEAEDVGTYYCMQGRESPWTFGQGTKVDIKRTVAAPSVFIFPPSDEQLKSGTASVVCLLNNFYPREAKVQWKVDNALQSGNSQESVTEQDSKDSTYSLSSTLTLSKADYEKHKVYACEVTHQGLSSPVTKSFNRGEC
B2: MS-93 (antibody)
VH: not shown
VL: B1 VL with F2I, G73D, A85T
B3: MS-101 (antibody)
VH: not shown
VL: B1 VL with L9H, S18P, G73D
B4: MS-100 (antibody)
VH: not shown
VL: B1 VL with L9H, S18P, A85T
B5: MS-99 (antibody)
VH: not shown
VL: B1 VL with G73D
B6: MS-102 (antibody)
VH: not shown
VL: B1 VL with L9H
B7: MS-96 (antibody)
VH: not shown
VL: B1 VL with F2I, L9H, G73D
B8: MS-98 (antibody)
VH: not shown
VL: B1 VL with A85T
B9: MS-103 (antibody)
VH: not shown
VL: B1 VL with F2I, S18P, G73D, A85T
B10: MS-94 (antibody)
VH: not shown
VL: B1 VL with F2I, L9H, S18P, G73D, A85T
B11: MS-104 (antibody)
VH: not shown
VL: B1 VL with F2I, A85T
B12: MS-97 (antibody)
VH: not shown
VL: B1 VL with S18P, G73D, A85T
B13: MS-95 (antibody)
VH: not shown
VL: B1 VL with F2I, L9H, A85T

Target: HIV-1 envelope glycoprotein of pseudovirus SC422661.8 (HIV-1)
Assay: cell-based or functional assay

In the case of B1, the “IC50 (neutralization in TZM.bl cells)” value is reported as 0.285 µg/mL.

With B1 the “IC80 (neutralization in TZM.bl cells)” value was 1.03 µg/mL.

Target: HIV-1 envelope glycoprotein of pseudovirus RHPA4259.7 (HIV-1)
Assay: cell-based or functional assay

B1 was tested, and the “IC50 (neutralization in TZM.bl cells)” value was 0.178 µg/mL.

For B1, the “IC80 (neutralization in TZM.bl cells)” value was 0.802 µg/mL.

Target: HIV-1 envelope glycoprotein of pseudovirus DU172.17 (HIV-1)
Assay: cell-based or functional assay

With B1 the “IC50 (neutralization in TZM.bl cells)” value was 1.76 µg/mL.

In the case of B1, the “IC80 (neutralization in TZM.bl cells)” value is reported as 6.27 µg/mL.

Target: HIV-1 envelope glycoprotein of pseudovirus BB1012-11.TC21 (HIV-1)
Assay: cell-based or functional assay

With B1 the “IC50 (neutralization in TZM.bl cells)” value was 0.029 µg/mL.

For B1, the “IC80 (neutralization in TZM.bl cells)” value was 0.093 µg/mL.

Target: HIV-1 envelope glycoprotein of pseudovirus CNE52 (HIV-1)
Assay: cell-based or functional assay

For B1, the “IC50 (neutralization in TZM.bl cells)” value was 0.22 µg/mL.

B1 was tested, and the “IC80 (neutralization in TZM.bl cells)” value was 1.31 µg/mL.

Target: HIV-1 envelope glycoprotein of pseudovirus 0260.v5.c36 (HIV-1)
Assay: cell-based or functional assay

In the case of B1, the “IC50 (neutralization in TZM.bl cells)” value is reported as 0.024 µg/mL.

With B1 the “IC80 (neutralization in TZM.bl cells)” value was 0.066 µg/mL.

Target: HIV-1 pseudovirus 263-8 (envelope glycoprotein) (HIV-1)
Assay: cell-based or functional assay

Point of comparison: B9, “neutralization IC50” value 0.018 µg/mL. Against it:
- B2 — the same, 0.018 µg/mL
- B3 — 1.6-fold lower, 0.011 µg/mL
- B4 — 3-fold lower, 0.006 µg/mL
- B5 — 1.6-fold lower, 0.011 µg/mL
- B6 — 2.6-fold lower, 0.007 µg/mL
- B7 — the same, 0.018 µg/mL
- B8 — 2-fold lower, 0.009 µg/mL
- B10 — within 1.5-fold, 0.014 µg/mL
- B11 — within 1.5-fold, 0.014 µg/mL
- B12 — within 1.5-fold, 0.015 µg/mL
- B13 — within 1.5-fold, 0.013 µg/mL

Point of comparison: B2, “neutralization IC80” value 0.065 µg/mL. Against it:
- B3 — 1.6-fold lower, 0.041 µg/mL
- B4 — 2.5-fold lower, 0.026 µg/mL
- B5 — 1.6-fold lower, 0.041 µg/mL
- B6 — 2.4-fold lower, 0.027 µg/mL
- B7 — within 1.5-fold, 0.064 µg/mL
- B8 — 2-fold lower, 0.033 µg/mL
- B9 — within 1.5-fold, 0.07 µg/mL
- B10 — within 1.5-fold, 0.047 µg/mL
- B11 — within 1.5-fold, 0.052 µg/mL
- B12 — within 1.5-fold, 0.052 µg/mL
- B13 — within 1.5-fold, 0.047 µg/mL

Target: HIV-1 pseudovirus SC05.8C11.2344 (envelope glycoprotein) (HIV-1)
Assay: cell-based or functional assay

Point of comparison: B9, “neutralization IC50” value 0.707 µg/mL. Against it:
- B2 — within 1.5-fold, 0.749 µg/mL
- B3 — within 1.5-fold, 0.819 µg/mL
- B4 — within 1.5-fold, 0.531 µg/mL
- B5 — within 1.5-fold, 0.759 µg/mL
- B6 — within 1.5-fold, 0.527 µg/mL
- B7 — 1.5-fold higher, 1.07 µg/mL
- B8 — within 1.5-fold, 0.59 µg/mL
- B10 — within 1.5-fold, 0.739 µg/mL
- B11 — within 1.5-fold, 0.512 µg/mL
- B12 — within 1.5-fold, 1.02 µg/mL
- B13 — within 1.5-fold, 0.702 µg/mL

Point of comparison: B7, “neutralization IC80” value 3.4 µg/mL. Against it:
- B2 — within 1.5-fold, 2.48 µg/mL
- B3 — within 1.5-fold, 2.69 µg/mL
- B4 — 1.9-fold lower, 1.77 µg/mL
- B5 — within 1.5-fold, 2.49 µg/mL
- B6 — 2.4-fold lower, 1.42 µg/mL
- B8 — 1.8-fold lower, 1.9 µg/mL
- B9 — within 1.5-fold, 2.44 µg/mL
- B10 — within 1.5-fold, 2.5 µg/mL
- B11 — 2-fold lower, 1.73 µg/mL
- B12 — within 1.5-fold, 2.63 µg/mL
- B13 — 1.9-fold lower, 1.79 µg/mL

Target: HIV-1 pseudovirus X1193_c1 (envelope glycoprotein) (HIV-1)
Assay: cell-based or functional assay

Point of comparison: B9, “neutralization IC50” value 0.112 µg/mL. Against it:
- B2 — within 1.5-fold, 0.088 µg/mL
- B3 — within 1.5-fold, 0.098 µg/mL
- B4 — 1.9-fold lower, 0.058 µg/mL
- B5 — within 1.5-fold, 0.13 µg/mL
- B6 — 1.6-fold lower, 0.071 µg/mL
- B7 — within 1.5-fold, 0.113 µg/mL
- B8 — within 1.5-fold, 0.088 µg/mL
- B10 — within 1.5-fold, 0.123 µg/mL
- B11 — 1.8-fold lower, 0.063 µg/mL
- B12 — within 1.5-fold, 0.101 µg/mL
- B13 — within 1.5-fold, 0.111 µg/mL

Point of comparison: B12, “neutralization IC80” value 0.588 µg/mL. Against it:
- B2 — within 1.5-fold, 0.543 µg/mL
- B3 — within 1.5-fold, 0.602 µg/mL
- B4 — 1.6-fold lower, 0.358 µg/mL
- B5 — within 1.5-fold, 0.57 µg/mL
- B6 — within 1.5-fold, 0.412 µg/mL
- B7 — within 1.5-fold, 0.677 µg/mL
- B8 — 1.6-fold lower, 0.369 µg/mL
- B9 — within 1.5-fold, 0.502 µg/mL
- B10 — within 1.5-fold, 0.548 µg/mL
- B11 — 1.5-fold lower, 0.388 µg/mL
- B13 — within 1.5-fold, 0.467 µg/mL

Target: HIV-1 pseudovirus Ce1176_A3 (envelope glycoprotein) (HIV-1)
Assay: cell-based or functional assay

Point of comparison: B12, “neutralization IC50” value 0.125 µg/mL. Against it:
- B2 — 1.9-fold higher, 0.239 µg/mL
- B3 — 2.9-fold lower, 0.043 µg/mL
- B4 — 2.6-fold lower, 0.048 µg/mL
- B5 — 1.7-fold lower, 0.074 µg/mL
- B6 — 3.2-fold lower, 0.039 µg/mL
- B7 — 2-fold higher, 0.248 µg/mL
- B8 — within 1.5-fold, 0.102 µg/mL
- B9 — within 1.5-fold, 0.172 µg/mL
- B10 — 3-fold higher, 0.371 µg/mL
- B11 — 1.7-fold higher, 0.218 µg/mL
- B13 — 1.6-fold higher, 0.203 µg/mL

Point of comparison: B5, “neutralization IC80” value 1.25 µg/mL. Against it:
- B2 — 4.3-fold higher, 5.33 µg/mL
- B3 — 1.6-fold higher, 1.94 µg/mL
- B4 — within 1.5-fold, 0.905 µg/mL
- B6 — 2.2-fold higher, 2.75 µg/mL
- B7 — 4.7-fold higher, 5.85 µg/mL
- B8 — 1.9-fold higher, 2.36 µg/mL
- B9 — 2.5-fold higher, 3.13 µg/mL
- B10 — 9.4-fold higher, 11.7 µg/mL
- B11 — 4.9-fold higher, 6.11 µg/mL
- B12 — within 1.5-fold, 1.59 µg/mL
- B13 — 4.3-fold higher, 5.38 µg/mL

Target: HIV-1 pseudovirus AC10.0.29 (envelope glycoprotein) (HIV-1)
Assay: cell-based or functional assay

Point of comparison: B6, “neutralization IC50” value 0.047 µg/mL. Against it:
- B2 — within 1.5-fold, 0.058 µg/mL
- B3 — within 1.5-fold, 0.045 µg/mL
- B4 — within 1.5-fold, 0.042 µg/mL
- B5 — 1.5-fold higher, 0.072 µg/mL
- B7 — within 1.5-fold, 0.064 µg/mL
- B8 — within 1.5-fold, 0.067 µg/mL
- B9 — within 1.5-fold, 0.07 µg/mL
- B10 — 1.7-fold higher, 0.079 µg/mL
- B11 — within 1.5-fold, 0.041 µg/mL
- B12 — within 1.5-fold, 0.057 µg/mL
- B13 — 1.6-fold higher, 0.076 µg/mL

Point of comparison: B11, “neutralization IC80” value 0.208 µg/mL. Against it:
- B2 — within 1.5-fold, 0.301 µg/mL
- B3 — within 1.5-fold, 0.221 µg/mL
- B4 — within 1.5-fold, 0.211 µg/mL
- B5 — 1.6-fold higher, 0.328 µg/mL
- B6 — within 1.5-fold, 0.168 µg/mL
- B7 — within 1.5-fold, 0.253 µg/mL
- B8 — within 1.5-fold, 0.245 µg/mL
- B9 — 1.6-fold higher, 0.334 µg/mL
- B10 — within 1.5-fold, 0.299 µg/mL
- B12 — within 1.5-fold, 0.282 µg/mL
- B13 — within 1.5-fold, 0.27 µg/mL

Target: HIV-1 pseudovirus 6952.v1.c20 (envelope glycoprotein) (HIV-1)
Assay: cell-based or functional assay

Point of comparison: B9, “neutralization IC50” value 0.485 µg/mL. Against it:
- B2 — 1.9-fold lower, 0.259 µg/mL
- B3 — 1.9-fold lower, 0.254 µg/mL
- B4 — 2.7-fold lower, 0.182 µg/mL
- B5 — 2.2-fold lower, 0.217 µg/mL
- B6 — 3-fold lower, 0.162 µg/mL
- B7 — within 1.5-fold, 0.558 µg/mL
- B8 — 4.4-fold lower, 0.109 µg/mL
- B10 — 2-fold lower, 0.238 µg/mL
- B11 — within 1.5-fold, 0.457 µg/mL
- B12 — 3.3-fold lower, 0.147 µg/mL
- B13 — 2.1-fold lower, 0.229 µg/mL

Point of comparison: B12, “neutralization IC80” value 0.917 µg/mL. Against it:
- B2 — 4.7-fold higher, 4.31 µg/mL
- B3 — 3.8-fold higher, 3.51 µg/mL
- B4 — 1.8-fold higher, 1.68 µg/mL
- B5 — 2.2-fold higher, 1.99 µg/mL
- B6 — 2.8-fold higher, 2.53 µg/mL
- B7 — 9.3-fold higher, 8.56 µg/mL
- B8 — 1.7-fold higher, 1.6 µg/mL
- B9 — 6.5-fold higher, 5.95 µg/mL
- B10 — 4-fold higher, 3.67 µg/mL
- B11 — 9.4-fold higher, 8.61 µg/mL
- B13 — 6.8-fold higher, 6.26 µg/mL
